B1: aaNAT2 (PaaNAT2) (Aedes aegypti) (protein)
chain: MLDSKLNNIRFETISSKYYDDVIEHLRQTFFADEPLNKAVNLTRPGQGHPLLEQHSLSTLKDNVSIMAISNDGDIAGVALNGILYGNTDIEKSREKLNEIQDESFKKIFKLLYEQNLKINLFKQFDVDKIFEIRILSVDSRFRGKGLAKKLIEKSEELALDRGFQVMKTDATGAFSQRVVSSLGFITKCEINYTDYLDENGEQIFVVDPPHEKLKIMCKVIN
B2: aaNAT1 (PaaNAT1) (Aedes aegypti) (protein)
chain: MASKMSTVSSDAKGAIVKPSSTDDSTLPLDEVDTNISIELITEDDAEDVLKLLKKFFFKDEPLNTFVNLGECKELEKYSTKNLHEHCSFKAVNGRGEIVGVNINGLINRPKETDEPPAKLADGCEHPKFKKIMALMDYVDEHFNIFDLYPDVDRMLDVKIMSVDSRYRGLGIAGKLTDRTMQYVKDNNIKLVHVLCSSHFSARVMEKLDFEEVYKLDYSDYLVNGEQVFDPEKPHTAVRILTKRLA

Experiments:
Test in all cases: DTNB colorimetric detection of released CoA, Michaelis-Menten fit
Type in all cases: biochemical, Aedes aegypti
Settings in all cases: apparent Km; 0.4 mM acetyl-CoA, 50 mM Tris-HCl, 1.0 mg/mL BSA, room temperature
[1] = substrate: NC[C@H](O)c1ccc(O)c(O)c1
[2] = substrate: NCCc1ccc(O)c(O)c1
[3] = substrate: NCCc1ccc(O)cc1
[4] = substrate: NCCc1c[nH]c2ccccc12
[5] = substrate: NC[C@H](O)c1ccc(O)cc1
[6] = substrate: NCCc1c[nH]c2ccc(O)cc12

Protein	Km [1]	kcat [1]	kcat/Km [1]	Km [2]	kcat [2]	kcat/Km [2]	Km [3]	kcat [3]	kcat/Km [3]	Km [4]	kcat [4]	kcat/Km [4]	Km [5]	kcat [5]	kcat/Km [5]	Km [6]	kcat [6]	kcat/Km [6]
B1	420 ± 60 µM	3.47 ± 0.192 s⁻¹	8270 M⁻¹ s⁻¹	130 ± 50 µM	2.56 ± 0.25 s⁻¹	19700 M⁻¹ s⁻¹	170 ± 30 µM	3.17 ± 0.183 s⁻¹	18600 M⁻¹ s⁻¹	170 ± 40 µM	3.05 ± 0.197 s⁻¹	17900 M⁻¹ s⁻¹	270 ± 40 µM	3.65 ± 0.175 s⁻¹	13500 M⁻¹ s⁻¹	230 ± 50 µM	3.16 ± 0.198 s⁻¹	13800 M⁻¹ s⁻¹
B2	160 ± 40 µM	7.76 ± 0.577 s⁻¹	48500 M⁻¹ s⁻¹	190 ± 70 µM	7.3 ± 0.742 s⁻¹	38400 M⁻¹ s⁻¹	170 ± 40 µM	6.77 ± 0.413 s⁻¹	39800 M⁻¹ s⁻¹	160 ± 40 µM	7.34 ± 0.528 s⁻¹	45900 M⁻¹ s⁻¹	140 ± 80 µM	7.26 ± 1.12 s⁻¹	51900 M⁻¹ s⁻¹	230 ± 60 µM	7.54 ± 0.595 s⁻¹	32800 M⁻¹ s⁻¹
